The values that follow are results of earlier work, collected in PMC9313270.

This data set has as its target leptin (UniProt P41159). As to the kind of experiment: not stated (listed for the qPCR aptasensor, 'This work'). The note with it: leptin binding buffer (composition not given); aptamer-adaptor annealing 15 min at 37 C, leptin incubation 30 min at 37 C, polymerase extension 10 min at 60 C …. In general terms: Quantitative PCR measures a nucleic acid by following its amplification.

Chain of leptin (P41159 22-167): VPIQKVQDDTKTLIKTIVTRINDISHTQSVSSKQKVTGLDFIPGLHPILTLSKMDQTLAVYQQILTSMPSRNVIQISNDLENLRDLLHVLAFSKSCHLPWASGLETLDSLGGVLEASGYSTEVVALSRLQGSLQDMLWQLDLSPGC

A word on the Kd: it is a measure of binding affinity in units of concentration. With “GTTAATGGGGGATCTCGCGGCCGTTCTTGTTGCTTATACA [leptin aptamer (Ashley and Li)]”, the Kd is 1.5 µM.
